# Measurements taken from the DeepSol protein solubility set.
# Experiment: soluble on expression in E. coli; label from the status in PepcDB or PDB records
row,Sequence,soluble on expression in E. coli
1,GPGSMAHLFFTGACAAAAALPISDREEVSPVWSIYDDYCCGASQHAEVDDPQVEGEGVGNCGGTTPPRLPFISGPVSSMTLKGAQLKKEAPIRRGAQGAVYSALDVATSAPAEDEKAKGLFSPEACRGHEGEAQVADGGQRPARRGRRVAVKRIFIQASDFGARDISATVLREVTLHRFVSEKQAACLAAAGAFYPTGSTSDATALAEADQGQTLCNLIDDSARVIHLYRVVEAPHKEMCLVMELAATNLEQVVFPHGARGASRGDGAGGYKRKPGVVSLFGSSASIGVGGGLGLSSASPSTAPDAATAEVGPQASSPSPPPSRMPLVRYVMRRLLRLVCFLHETCCVVHRDLKLSNVLVSKDAGLRLGDFGSARFIPPLRSATKTGVENSPSVPEPPAAPAGQREHLLCTPPSIRTTLHYRPPEALLGDQVCRTAADVWALGVIFAQLLLQKGLFHSESELDLLGAIQKLLGMPTYSAPPSWLAAPSVPGPPRERESAAHVPAPQASLPYKFHTGVVPADGLDLLSRMLHQQPECRVTAREALQHPFLNLEGLSAAATHDDDERGRVLWEERVATVLREQATGHIYGMGGGERRPMLISLADNEDEEDQEDDEVGVAPFCVNLGGCTSY,not soluble
2,GPGSMAPNQFVELVDTVEKYATRGSNECGCRIDTREESIPSNTLVGYPFANAEGVGVHLSYRKGDITLSADVSSNPKATWRDVLPTFSWTRSLRGQQHEVLLRLAMTPLFAYSFSHPQFTCSSEVNFMDGFRSKFTTSTQLSMRNQLGACVEYDPSRSGVIDYTVAFLRAGCSAVLGGDFVVQYNATRGLGVHTRIPVKPFMGAVALVERGRVIIGTEARSPCGAQMMMNLDLVNSRVMLAVVRNISTVWKFTFNYSAPLPGTSSAARRFGLVFTSQDAP,not soluble
3,GPGSMCNRFSCSSCRYVVPIQSRRPLTINHSFLKYNKVVDDDDEKGSSNTVKRGVKEEEEVDGGQVITVRCQNDEKQCDGDRAHYVQIQMRSADEPATTFFKCLKCGFQWKQD,soluble
4,GPGSMDEFVYNRCSLNPIHWVLMLKGCLVDLFFSVRPINFSYSRVGMTNLAGERDQAACLREIRRAVRIIEGRKRTVATGTNKDSFQDMDSRCHTPERPLRLHLVLFGFSRGATTTFYTAMKLPPELATYVSLVVVEAAFDTLHNVIESSCWFPSFVLWFFRTFCDYSGEDAYKYDRNQIHLRCPIAFVMSVKDTRVPNELTQRLIDNVKADCPQIPAVEVLQLKHSRHPLMAVGNREDQDAYVAFMEGLYDRYCN,not soluble
5,GPGSMDKDVDVTKLTAQALQVHIERCERLMKQPALLSRLPDGGNGIRERYSKYLAEVERRKTNGAASALTAQKDGDGEVRDEDEAQSRPAAVEGCQDEKTVGDTTTAEVTYEEEARAIGERHRHFRVPVEEIVRRTFGGSLCDSELQRIINDVPPGFFLTYEETMSMERKLMEEERAETLERLRRQRSAGGVQ,soluble
6,GPGSMEDAHMLVATDDADVAYFGIFDGHSNAECSAYVARELPQRLKKLPESITAEMLEKVCIEVDEAYMKTSTEGGTTGTFCVIRKDLTVTIANVGDSRILVCRGGKLIFATEDHKPYIPGETERIVACGGSVVSNRVDGDLAVSRAFGDASFKVKGTKDYRMQKVIAVPDVSVLQCEPNDFIILACDGVFEGNFSNEDVCQFVWEQQQNCWDDLAVVACRVCDEAIRCGSKDNISCLVVQLAEGASRVKAFGATSFVPGPPFPRNQQPCRAAYAQMAELGHTTTAAALQTRYQLLQAFSKNKLNSQPPVMRTAFEMSDEVDVETEWSFFGKGPAPGNEKNFFEALANTGNSS,not soluble
7,GPGSMELTEEERGLLILRLHQVLRPFLLRRTKADVDSTLRMTFHHMWCPLSAMQQRLLCMLREQRRIPTVLGMAGGYSGKSSSSSEADNEEEEEAAGAADAAAHTSTFPAAEIGADESTGCTPYIAVAALAADALHGKASPDLDPLQARNETAMPRDRLAELVWRHLPALASTESSDILRCAVQQDRALGLTSAGVSESSARLVCNHAFLLPFFSQVLHRHGLDEVTQEGCNDADAAAVATSESSVVGAEAAERCGAAGLTLACSGKFLVLHLLLSRLYVAQRKVVLFTHWLNCVDLLVDYLYSRGWADHAEVLTGGSSEAERLTSVRRFREDPGCLFFLLSIKAGGCGINLQAAHMVVLVDRDYTVTNEDQALARVYRIGQRYTVRAVYLATTDSSEQHVAQRATAKNKPRQAIINDGVYQVTTASEGERVGETGEAVTAAKFADPPSHAYNELDTSELWRSISGATTPPSPTTAMQEARRPECDGTASGAARPAPFSLPPPEAFWVALSCLVESMDELVLTEEDRAAATVRSAEEERRSMGCTPANSAAARLLATRPPRSTAELHLRLQGGRDEMFSGPQRERGVAPSLSGTAASDAYLGVWKQSAEAPTTGDRTRSHTPSEPQAAALAAAPQPTPRSAPVTDPLQNSALFWLEYSHLLRIAGRGPYLLSDSLRVAVTNDTRKNDPEERVRRRQRRDRRVAKRLRLASVDVPDDFREACWAKEGIDDDAEVAERYLRFLDANAGKRRQRRRKDAG,not soluble
8,GPGSMFDLTGRKALVTGATGGLGEAIARALHAQGAIVGLHGTREEKLKELAAELGERIFVFPANLSDREAVKALGQKAEEEMGGVDILVNNAGITRDGLFVRMSDEDWDAVLTVNLTSVFNLTRELTHPMMRRRNGRIINITSIVGVTGNPGQANYCASKAGLIGFSKSLAQEIASRNVTVNCIAPGFIESAMTGKLNEKQKDAIMGNIPMKRMGVGADIAAAVVYLASDEAAYVTGQTLHVNGGMAMI,soluble
9,GPGSMFGRSALCLAKRFRYNTKYPSLVSYNKLPWEILNHETPEFHMHVAPHYEQIMTLAASTHVPHIVGKKHLEMPPEHRLRLLPGMFYMLDGDSIPEGFTANRVLDPTALQYYGRLESLVAPVQAVRMLISDDLRIVCNSVTLQGPLQLPVASYASLASLEVVTNKASASFTLFHFVRPNRPPSELQLEKYYIHAPRAMALAEFNSTSNTSWEPKLQAPKRSKRVTPLPAYRPPQSYLMGLAERLAVVPGSSFGRRSLMWGHWF,not soluble
10,GPGSMFHNSYQAGFLSILYSIGSKPLQIWDSQVRNGHVKRITDEDIQSSVLEIMGSNVSTCYIVCPANPKQTLGIKLPFLVMIIKNMKKYFSFEVTILDDKNMRRRFRASNYQSTTKVKPFICTMPMRLDEGWNQIQFNLSDFTRRAYGTNYVETLRVQVHANCRIRRLYFSDRLYAEEELPPEFKLFLPIAQQPPAAAAAEQRDIEAADVPQAASAAQ,soluble
11,GPGSMFTPSTRFLCSARPLLWFGRRGVFAAPHPEKAKTGGEDAFVVHTSGIGVADGVGGYASYGVDPGVYTRNVMKHTLRALQEDDNRGTIGALQALTYGYTEAQKLKQPGGCPVTLVTLLDGRFASVLNLGDCGTICLRSSKLFFATEPQQHSFNCPYQLPEDPPSVGDRTTLEVSEGDVFLCASDGLLDNVDMSDILRHLDAVNRDGCQRVAENLVACACRNGANKGFDSPFAKQARAVGYHYMGGKQDDVTVVVAQLTRGTVAPDDCPSLITELLDVHKT,not soluble
12,GPGSMHSEQSICEFIHMQRELRRCYATMENYEVVIAQLRDDCALSRAQLCRFQQEHAQRGKDVEAQVRAELTEQTNARLSALRQSEASDALCLKTSAGPDRNTTDAAEEYRRDTCQATLDELRRALQEEQSAHAECLARLTEALAAKARWKSRAVELLKWRKQVCGQMYMSSTPSSSSFVAGARAIGTCGALPGVSTISNCASDSQAEPNAGNSASDVSSPSQRLYRPPSPYKPPPCVSSPSEAGKLRSSMTSEASAALPASPYEGGTGACAADKENEKDSSSTPGADISCQSDSTAVSFLSPSTTPAGRVAQALGSGVVVVWPPLAERQEMSTRKSAESSRTQSSTTAAALESGNPALLDDSGKQGLQPSPPTSSVSPGVLPSSVGRYTTSAVGSRTQAGCRLPLVGCEKAVVAAEPLRVMPDPFAFPRPPPSGGVTCTNHSLLSTSDELPTSCDVSAAMASSAAERQCNELLRALLDKEQQLALIAEERTKYKRLYEATQS,not soluble
13,GPGSMHSTPAKEAEAEGYMRSGKKHLQKKLLQFKANYGGAAEDFDKAARIYTNLRNYPKAREAWTQACEAHSKAHNDFNAANSMEKLGDLASQCICESQSTMSSGSTAGMTAQLSEHLFQDAIHAYEEASKLYGVATNGSKQAAVLKKAADLISRSLATVHYRRPGTSGATTVDTAYLQKEYKRIIPELIELMERNWAATESKPFGLPDIYRSHVLLHLRSGDVEGAVHAEKRMIGIVSTSPADGTYDDSKNLFRILNQPSNAAKVGLEIVVLCLSTSVDDGYTWANIEMGRLGAVFGFCGSSEERAAAALLAAYAERDEDALQEALKTNTCFNFLAADVSRIAKKLTLGSKGHSKETGASVAAAGGPERSAAPPSSSQAPVDASETDSEDLR,soluble
14,GPGSMKRADGRESPRAVRAIHVATNVLANCHSSACVEIGKTRVLCGVRPPQHLVQEYRGTRGRVSCQVHRSLASSSNLDNSGDRDMALALEGVAEQAVVLERIPQLLVGVLIEVVHDDGALWDAATTALCVALTAGGVEVYDTFSACSAALRHDGAIIVDLTREEAAAAMASVVVCSGLSLGGVYYCCHKGACEATTMSQLVQAATKGLQVRKVPLLEQIRNQLV,soluble
15,GPGSMKRLLDSAKHLLRGGSLGYLASGEPYHPFGEDFGLTVFPDYIQLREKLALRSGYVDVYTQRSASIKLSDGRFQLPPLPKHSFLPLVERLEQDGIVPRGWLNNQTANLYEPEDFIRAHIDNLFVYDDIFAVISLGANALLRFVHVQNGEELDVVIPDGSVYIMSGPSRYVYFHMVLPVEAQRVSIVFRRSILNSDGGFRPVSTPLGDLMPYRSTQILNTLYAKQIGGVRVAVDDKYLEKEEIGAFDTGKWVKGLHPLRDWTLLSQLDEDEARVLELREKRYLDVDLSWRFTELRKRYKELEDMLRV,not soluble
16,GPGSMLRGTRLMLMMQLHSLPTPNPSCYTFHIPSSTYDNFIPDGQTCDVAHMGLAWVHPLSQGIFEQYPQEVASVFIAPRHTSITVHPHVDWNKLEWSISSFIGHYLVFTNACFPAAAEYALLEDDLVIHEDDSEVLQCIKELVREQVRPMVQRDGGDVKLLNFNEKTGVVSLAMLGACRTCPSSQNTLKDGVERLLKHFLPEVKEVVEAKGHAFYEEYGLLFDSEKALREEAARVDAVRRRKISIYTTAPLMPFEALNEPDGDE,not soluble
17,GPGSMLRKVTSPYKVSIRRTAASVTAADSKKAILRLIRFDPETNKQRVESYEYDKHHDYMVLDLITAVKAHQDPTLAFRASCCEGVCGSCAMNINGVNSLACITFSQQVTTVGPLPNFPVIKDFVVDLRHFFRQYAYIRPFVRNVNLDRSRLDNIVERYKTITKVIHGVPSDDEAQLAQLESKSGAQTDVMALLQLLDAVCESGNVTHLIRTLEALQERGMQLDQGKVKALIEETLQNYKKRKLGA,not soluble
18,GPGSMMILPHAEEVELRRGSSPATITSTTGRVNRVAVDTSSEENQEAVSQDRLEGRDDAGKSPTTSASPGTSSKKDRFQATSAQVKGALSTPRRAVYEFHDMFGFLVTEEEKAAEDYERRNNGYSRAYLDKWEYMMTHWANVRQDTLKRYCRRGVPQPKRCAVWQHLLQSWGMKDRFPGVYMRLHSQPLDSKDLADVIARDLDRTFPTNRLFSVKSGQGQQILRRLLHAYANYNPGVGYCQGMGFLAATLILQVEEEEDAFWAFVAVMENAKYNMKAVFAPSFPQLQCAFYVFEALMRQKMPKLYAHLHDRHPIPPSFYAVHWFMTIFTYHFNFGLVSRIWDMFFCEGWKPVYRIALALLKIEERRLLSLNTDTELLLVLKGIQESKRPVELLKTALKIRFKSAYMNQLMAEFNAQPS,not soluble
19,GPGSMNFTQQLWSVKEWGRVMATRSEYVQIVHDATNDEKWGPTGPQMDAVCNAYPRGGPEILNELRTRLNNRDKSWRPCYKSLLVIDYLARNVDDRYLPEISALVPIIRTISTSFYYTNPKGVDHGVSVRERAKKVADLLSDGLQLREERMVAAQIKAKLSHNASDGGGPNSDAPYSGAGSYGGSRDCDRYRSYVKGSRQAYDSYRSSPPPSAVLSRPRTKEEQERCDMEMALRLQRDEERRSGVSAEQLEEMYAT,soluble
